Results as given in article PMC6348830, “In Vivo Biokinetics of ^177Lu-OPS201 in Mice and Pigs as a Model for Predicting Human Dosimetry” (Contrast Media & Molecular Imaging, 2019).
Positions of bridges follow the written chain, without caps; N, C: chain ends. Non-standard residues stand in square brackets, D forms with d. Residues, ends and D or L forms follow the SMILES beside them. *: point of attachment. DOTA = O=C(O)CN1CCN(CC(=O)O)CCN(CC(=O)*)CCN(CC(=O)O)CC1; dPhe(4-NHCONH2) = NC(=O)Nc1ccc(C[C@@H](N)C(=O)O)cc1; Dihydroorotyl(S) = O=C1C[C@@H](C(=O)*)NC(=O)N1; Phe(4-Cl) = N[C@@H](Cc1ccc(Cl)cc1)C(=O)O; Phe(4-NH2) = Nc1ccc(C[C@H](N)C(=O)O)cc1

Legend:
[1] = human, in vivo; cited from earlier work
Protocol: The fast blood clearance of the OPS201 in the first phase (<56 h) for each species was in agreement with studies of the agonist. […] For humans, most likely because of the short observation period, the value was lower (0.5 h). For the late phase in pigs, our result (58 h) is also close to the results obtained in the human study with the agonist (43 h). Part of an ongoing phase 1 study with ^177Lu-OPS201 in patients with SSTR-posi ...

[2] = clinical; set-up: species or system patients (humans); settings: both sexes, human, in vivo, total radioactivity
Protocol: (§1) For analyzing the biokinetics of ^177Lu-labeled peptides in preclinical and clinical studies, the data of ^177Lu-OPS201 athymic nude Foxn1nu mice (28 females, weight: 26 ± 1 g, age: 8–9 weeks), Danish Landrace pigs (3 females-1 male, weight: 28 ± 2 kg, age: 3 months), and patients (3 females-1 male, weight: 61 ± 17 kg, age: 44–77 years) with administered activities of 0.19–0.27 MBq (mice, 0.017 µg of peptide), 97–113 MBq (pigs, 9 µg of peptide), and 850–1086 MBq (patients, 55–106 µg of peptide) were included. For pigs and patients, kidney protection was applied.
After administration of ^177Lu-OPS201, blood samples were taken up to 72 h for mice, up to 300 h for pigs, and up to 23 h for patients in order to measure the blood radioactivity contents by using the same well-type gamma counter (Packard Instruments). […] In order to convert the raw count values to blood uptake values per mL human blood in each time point, human blood data were quantified (in Bq/mL) retrospectively by using the same calibration factor as for the mouse study. […]
To quantify the amount of activity, the average percentage values corresponding to the injected radioactivity (A%) per organ as a function of time were calculated for the liver, right kidney, left kidney, and blood for each species via a manual VOI analysis (for pigs and patients) and via gamma counter (for mice). […]

[3] = in vivo; set-up: species or system Danish Landrace pigs; settings: both sexes, Danish Landrace, pig, total radioactivity
Protocol: as §1
After administration of ^177Lu-OPS201, blood samples were taken up to 72 h for mice, up to 300 h for pigs, and up to 23 h for patients in order to measure the blood radioactivity contents by using the same well-type gamma counter (Packard Instruments). The human blood data were, originally, provided as relative values, normalized to the first blood sample immediately taken after injection. In order to convert the raw count values to blood uptake values per mL human blood in each time point, human blood data were quantified (in Bq/mL) retrospectively by using the same calibration factor as for the mouse study.
After injection, multiple whole body (WB) planar images and SPECT/CT scans were acquired at 0.5, 2, 3, 4, 50, 100, 150, and 250 h to quantify the uptake in the kidneys and liver. […]

SMILES | half-life of late phase, blood [1] | mean effective half-life of first phase, blood [1] | tissue uptake dose at 10 min [2] | tissue uptake dose at 10 min [3]
C[C@@H](O)[C@H](NC(=O)[C@@H]1CSSC[C@H](NC(=O)[C@@H](Cc2ccccc2)NC(=O)CN2CCN(CC(=O)[O-])CCN(CC(=O)[O-])CCN(CC(=O)[O-])CC2)C(=O)N[C@@H](Cc2ccc(O)cc2)C(=O)N[C@H](Cc2c[nH]c3ccccc23)C(=O)N[C@@H](CCCCN)C(=O)N[C@@H]([C@@H](C)O)C(=O)N1)C(=O)O.[177Lu+3] [177Lu-octreotate, DOTA-[Tyr3]octreotate] | 43 h | 1.6 h |  | 
C[C@@H](O)[C@@H]1NC(=O)[C@H](CCCCN)NC(=O)[C@@H](Cc2ccc(NC(N)=O)cc2)NC(=O)[C@H](Cc2ccc(NC(=O)[C@@H]3CC(=O)NC(=O)N3)cc2)NC(=O)[C@H](NC(=O)[C@H](Cc2ccc(Cl)cc2)NC(=O)CN2CCN(CC(=O)O)CCN(CC(=O)O)CCN(CC(=O)O)CC2)CSSC[C@@H](C(=O)N[C@H](Cc2ccc(O)cc2)C(N)=O)NC1=O [177Lu-OPS201, metal not drawn] ({DOTA}-[Phe(4-Cl)][dC][Phe(4-NH2)](Dihydroorotyl(S))[dPhe(4-NHCONH2)]KTC[dY]-NH2; disulfide 2-7) |  |  | < 5 %ID | < 5 %ID
